Test results: PMC10303109

Biological target: SARS-CoV-2 spike RBD wild type (SARS-CoV-2 (Wuhan strain)) (UniProt P0DTC2)
Experiment: filter binding

Sequence	Kd (11 Nap-dU in place of dT)	Kd (11 Nap-dU (5-[N-(1-naphthylmethyl)carboxamide]-2'-deoxyuridine) in place of dT)
CTGUCGGUAAGGGAGCUAGUGUAUGCCCCUGAGUUGGGGAUAUCACCGACAG [AM047-0]	0.02 nM	–
TATCGAGCGTCCTGCCTTTGCGGAGGUGAACCUUACGUUCAACUGGAUCGUGUGUAGGUACACCGACAGCCACCCAGAAA [AM032-0]	–	0.78 nM
